{
  "source": "patent US6103888A",
  "about": "“Mammalian cationic proteins having lipopolysaccharide binding and anti-coagulant activity” (priority 1999, dated 2000)",
  "molecules": {"B1": {"name": "human CAP18: human form of CAP18, amino acid sequence SEQ ID NO:2 (protein)", "chain": "MKTQRDGHSLGRWSLVLLLLGLVMPLAIIAQVLSYKEAVLRAIDGINQRSSDANLYRLLDLDPRPTMDGDPDTPKPVSFTVKETVCPRTTQQSPEDCDFKKDGLVKRCMGTVTLNQARGSFDISCDKDNKRFALLGDFFRKSKEKIGKEFKRIVQRIKDFLRNLVPRTES"}},
  "tested_on": "cysteine protease",
  "experiment": "Cysteine protease activity of purified human CAP18",
  "assay_type": "biochemical",
  "data": [
    {"molecule": "B1", "values": [
      {"measurement": "cysteine protease activity (in words)", "result": "significant cysteine protease activity"}
    ]}
  ]
}
